This is an account of results in article PMC2440032 (2008).

The target in this assay is porcine stomach mucin (porcine). Put plainly: SPR.

B1: odorranalectin (peptide)
peptide: YASPKCFRYPNGVLACT
Regarding B1, the Kd stood at 1910 nM.
